± gives the uncertainty stated by the source.

The results in this text go back to the Human Domainome abundance scans (Beltran et al. 2025).

B1: DnaJ homolog subfamily C member 5, residues 16 to 77; numbered along this chain, Q9H3Z4 (parent)
chain: LYHVLGLDKNATSDDIKKSYRKLALKYHPDKNPDNPEAADKFKEINNAHAILTDATKRNIYD

Variants of B1 are the subject of the data set. As to the kind of experiment: abundance fitness (aPCA) (normalised: wild type 0, dead -1); higher = more abundant; growth selection in yeast, the domain comes from the species named. The settings on record: Homo sapiens.
As to LYHVLGLIKNATSDDIKKSYRKLALKYHPDKNPDNPEAADKFKEINNAHAILTDATKRNIYD [D8I], the abundance fitness was -0.807 ± 0.11. With LYHVLGLQKNATSDDIKKSYRKLALKYHPDKNPDNPEAADKFKEINNAHAILTDATKRNIYD [D8Q], the abundance fitness was -0.019 ± 0.12. Consider LYHVLGLCKNATSDDIKKSYRKLALKYHPDKNPDNPEAADKFKEINNAHAILTDATKRNIYD [D8C], for which the abundance fitness is -0.497 ± 0.098. For LYHVLGLAKNATSDDIKKSYRKLALKYHPDKNPDNPEAADKFKEINNAHAILTDATKRNIYD [D8A] the value was -0.258 ± 0.069; for LYHVLGLKKNATSDDIKKSYRKLALKYHPDKNPDNPEAADKFKEINNAHAILTDATKRNIYD [D8K], -0.516 ± 0.13; for LYHVLGLVKNATSDDIKKSYRKLALKYHPDKNPDNPEAADKFKEINNAHAILTDATKRNIYD [D8V], -0.648 ± 0.077. The value for LYHVLGLMKNATSDDIKKSYRKLALKYHPDKNPDNPEAADKFKEINNAHAILTDATKRNIYD [D8M] was -0.355 ± 0.08. As to LYHVLGLNKNATSDDIKKSYRKLALKYHPDKNPDNPEAADKFKEINNAHAILTDATKRNIYD [D8N], the abundance fitness is -0.277 ± 0.11. Take LYHVLGLGKNATSDDIKKSYRKLALKYHPDKNPDNPEAADKFKEINNAHAILTDATKRNIYD [D8G]: the abundance fitness was -0.459 ± 0.075. Turning to LYHVLGLSKNATSDDIKKSYRKLALKYHPDKNPDNPEAADKFKEINNAHAILTDATKRNIYD [D8S], the abundance fitness is -0.378 ± 0.063.

Turning to LYHVLGLPKNATSDDIKKSYRKLALKYHPDKNPDNPEAADKFKEINNAHAILTDATKRNIYD [D8P], the abundance fitness was 0.108 ± 0.12. The value for LYHVLGLHKNATSDDIKKSYRKLALKYHPDKNPDNPEAADKFKEINNAHAILTDATKRNIYD [D8H] was -0.42 ± 0.14; that for LYHVLGLDKNAPSDDIKKSYRKLALKYHPDKNPDNPEAADKFKEINNAHAILTDATKRNIYD [T12P] was -1.01 ± 0.1; that for LYHVLGLDKNAASDDIKKSYRKLALKYHPDKNPDNPEAADKFKEINNAHAILTDATKRNIYD [T12A] was -0.878 ± 0.12. LYHVLGLDKNAESDDIKKSYRKLALKYHPDKNPDNPEAADKFKEINNAHAILTDATKRNIYD [T12E]: the abundance fitness is -0.573 ± 0.12.

For LYHVLGLDKNAMSDDIKKSYRKLALKYHPDKNPDNPEAADKFKEINNAHAILTDATKRNIYD [T12M], the abundance fitness was -0.678 ± 0.12. Regarding LYHVLGLDKNACSDDIKKSYRKLALKYHPDKNPDNPEAADKFKEINNAHAILTDATKRNIYD [T12C], the abundance fitness is -0.235 ± 0.12.

Regarding LYHVLGLDKNALSDDIKKSYRKLALKYHPDKNPDNPEAADKFKEINNAHAILTDATKRNIYD [T12L], the abundance fitness is -0.813 ± 0.084. In the case of LYHVLGLDKNADSDDIKKSYRKLALKYHPDKNPDNPEAADKFKEINNAHAILTDATKRNIYD [T12D], the abundance fitness is -0.467 ± 0.21. The value for LYHVLGLDKNASSDDIKKSYRKLALKYHPDKNPDNPEAADKFKEINNAHAILTDATKRNIYD [T12S] was -0.232 ± 0.11.

LYHVLGLDKNAFSDDIKKSYRKLALKYHPDKNPDNPEAADKFKEINNAHAILTDATKRNIYD [T12F]: the abundance fitness was -0.857 ± 0.13. As to LYHVLGLDKNAWSDDIKKSYRKLALKYHPDKNPDNPEAADKFKEINNAHAILTDATKRNIYD [T12W], the abundance fitness is -1.31 ± 0.12. As to LYHVLGLDKNAYSDDIKKSYRKLALKYHPDKNPDNPEAADKFKEINNAHAILTDATKRNIYD [T12Y], the abundance fitness was -1.07 ± 0.2. As for LYHVLGLDKNAGSDDIKKSYRKLALKYHPDKNPDNPEAADKFKEINNAHAILTDATKRNIYD [T12G], the abundance fitness is -0.472 ± 0.072. As for LYHVLGLDKNAKSDDIKKSYRKLALKYHPDKNPDNPEAADKFKEINNAHAILTDATKRNIYD [T12K], the abundance fitness was -0.437 ± 0.14. With LYHVLGLDKNAISDDIKKSYRKLALKYHPDKNPDNPEAADKFKEINNAHAILTDATKRNIYD [T12I], the abundance fitness was -0.412 ± 0.11. The value for LYHVLGLDKNAHSDDIKKSYRKLALKYHPDKNPDNPEAADKFKEINNAHAILTDATKRNIYD [T12H] was -0.349 ± 0.13. On to LYHVLGLDKNANSDDIKKSYRKLALKYHPDKNPDNPEAADKFKEINNAHAILTDATKRNIYD [T12N], for which the abundance fitness is -0.426 ± 0.17. Turning to LYHVLGLDKNNTSDDIKKSYRKLALKYHPDKNPDNPEAADKFKEINNAHAILTDATKRNIYD [A11N], the abundance fitness is -0.125 ± 0.36. The value for LYHVLGLDKNGTSDDIKKSYRKLALKYHPDKNPDNPEAADKFKEINNAHAILTDATKRNIYD [A11G] was -0.536 ± 0.1. LYHVLGLDKNETSDDIKKSYRKLALKYHPDKNPDNPEAADKFKEINNAHAILTDATKRNIYD [A11E]: the abundance fitness is -1.13 ± 0.25. For LYHVLGLDKNSTSDDIKKSYRKLALKYHPDKNPDNPEAADKFKEINNAHAILTDATKRNIYD [A11S], the abundance fitness was -0.578 ± 0.14.

On to LYHVLGLDKNRTSDDIKKSYRKLALKYHPDKNPDNPEAADKFKEINNAHAILTDATKRNIYD [A11R], for which the abundance fitness was -0.846 ± 0.1. The value for LYHVLGLDKNITSDDIKKSYRKLALKYHPDKNPDNPEAADKFKEINNAHAILTDATKRNIYD [A11I] was -1.49 ± 0.32; that for LYHVLGLDKNLTSDDIKKSYRKLALKYHPDKNPDNPEAADKFKEINNAHAILTDATKRNIYD [A11L] was -0.941 ± 0.15. The value for LYHVLGLDKNVTSDDIKKSYRKLALKYHPDKNPDNPEAADKFKEINNAHAILTDATKRNIYD [A11V] was -0.661 ± 0.11; that for LYHVLGLDKNQTSDDIKKSYRKLALKYHPDKNPDNPEAADKFKEINNAHAILTDATKRNIYD [A11Q] was -1.25 ± 0.33; that for LYHVLGLDKNPTSDDIKKSYRKLALKYHPDKNPDNPEAADKFKEINNAHAILTDATKRNIYD [A11P] was -0.536 ± 0.23.

As to LYHVLGLDKNWTSDDIKKSYRKLALKYHPDKNPDNPEAADKFKEINNAHAILTDATKRNIYD [A11W], the abundance fitness is -1.24 ± 0.21. With LYHVLGLDKNCTSDDIKKSYRKLALKYHPDKNPDNPEAADKFKEINNAHAILTDATKRNIYD [A11C], the abundance fitness was -0.182 ± 0.22. On to LYHVLGLDKNTTSDDIKKSYRKLALKYHPDKNPDNPEAADKFKEINNAHAILTDATKRNIYD [A11T], for which the abundance fitness was -0.553 ± 0.16.

For the variant LYHVLGLDKNMTSDDIKKSYRKLALKYHPDKNPDNPEAADKFKEINNAHAILTDATKRNIYD [A11M], the abundance fitness was -1.6 ± 0.38. With LYHVLGLDKNKTSDDIKKSYRKLALKYHPDKNPDNPEAADKFKEINNAHAILTDATKRNIYD [A11K], the abundance fitness is -0.569 ± 0.16.
